Results: publication PMC4772974 (EMBO Reports, 2016)

Key:
[1] = biological target: BBS4 (UniProt Q96RK4); assay: GFP-Trap co-IP, immunoblot; details: reference: EGFP-PCM1-WT*; sites S372
[2] = biological target: Cep290 (UniProt O15078); assay: GFP-Trap co-IP, immunoblot; details: reference: EGFP-PCM1-WT*; sites S372
[3] = biological target: PCM1 (UniProt Q15154); assay: RFP-Trap co-IP, mCherry-PCM1 with EGFP-PCM1; details: reference: mCherry-PCM1-WT* with EGFP-PCM1-WT*; sites S372
[4] = biological target: T1, His‐PCM1 (a.a. 1–1,128) (human, UniProt Q15154 1-1128); assay: pull-down; MBP-Plk4 on Dynabeads Protein G coupled with anti-MBP antibody; 8 μg His-PCM1(1128) in 600 μl binding buffer (50 mM Tris-HCl pH 7.5, 200 mM NaCl, 2 mM MgCl2, 0.5 mg/ml BSA, 0.05% NP-40), 4°C, 2 h; Coomassie and anti-His blot; details: both partners purified
T1 sequence (looked up): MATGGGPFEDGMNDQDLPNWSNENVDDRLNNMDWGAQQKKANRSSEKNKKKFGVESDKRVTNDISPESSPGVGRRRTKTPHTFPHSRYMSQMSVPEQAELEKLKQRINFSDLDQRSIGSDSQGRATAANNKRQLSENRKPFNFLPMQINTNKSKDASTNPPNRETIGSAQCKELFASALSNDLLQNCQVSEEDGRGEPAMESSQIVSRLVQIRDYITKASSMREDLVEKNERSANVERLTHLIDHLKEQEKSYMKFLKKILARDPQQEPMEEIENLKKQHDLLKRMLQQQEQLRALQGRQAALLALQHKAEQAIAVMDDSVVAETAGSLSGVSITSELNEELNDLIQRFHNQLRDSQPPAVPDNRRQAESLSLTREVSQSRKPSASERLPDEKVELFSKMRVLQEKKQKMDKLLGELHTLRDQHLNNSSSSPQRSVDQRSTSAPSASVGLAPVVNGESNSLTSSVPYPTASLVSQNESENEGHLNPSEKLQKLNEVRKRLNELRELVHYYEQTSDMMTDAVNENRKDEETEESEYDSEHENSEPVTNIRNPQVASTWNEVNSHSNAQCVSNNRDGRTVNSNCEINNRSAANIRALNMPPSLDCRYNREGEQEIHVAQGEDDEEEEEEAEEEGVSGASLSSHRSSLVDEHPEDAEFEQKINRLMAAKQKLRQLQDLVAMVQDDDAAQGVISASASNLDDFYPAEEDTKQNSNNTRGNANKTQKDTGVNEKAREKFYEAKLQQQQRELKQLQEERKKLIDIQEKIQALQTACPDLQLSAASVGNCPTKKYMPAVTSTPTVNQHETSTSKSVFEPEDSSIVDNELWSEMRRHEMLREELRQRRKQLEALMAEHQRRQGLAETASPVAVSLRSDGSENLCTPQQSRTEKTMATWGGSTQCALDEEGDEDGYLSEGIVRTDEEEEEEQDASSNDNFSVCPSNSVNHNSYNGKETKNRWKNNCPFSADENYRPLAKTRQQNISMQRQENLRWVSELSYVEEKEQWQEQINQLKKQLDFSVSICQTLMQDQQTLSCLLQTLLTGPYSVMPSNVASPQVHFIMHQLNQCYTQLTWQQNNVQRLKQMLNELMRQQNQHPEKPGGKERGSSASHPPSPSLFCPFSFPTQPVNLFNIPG

PCM1 (from UniProt Q15154) EGFP-PCM1-S372A*
binding against the reference [1]: weaker | binding against the reference [2]: weaker

PCM1 (from UniProt Q15154) mCherry-PCM1-S372A* with EGFP-PCM1-WT*
binding against the reference [3]: weaker

B1: MBP‐Plk4‐WT (enzyme, UniProt O00444 1-970, looked up)
chain: MATCIGEKIEDFKVGNLLGKGSFAGVYRAESIHTGLEVAIKMIDKKAMYKAGMVQRVQNEVKIHCQLKHPSILELYNYFEDSNYVYLVLEMCHNGEMNRYLKNRVKPFSENEARHFMHQIITGMLYLHSHGILHRDLTLSNLLLTRNMNIKIADFGLATQLKMPHEKHYTLCGTPNYISPEIATRSAHGLESDVWSLGCMFYTLLIGRPPFDTDTVKNTLNKVVLADYEMPSFLSIEAKDLIHQLLRRNPADRLSLSSVLDHPFMSRNSSTKSKDLGTVEDSIDSGHATISTAITASSSTSISGSLFDKRRLLIGQPLPNKMTVFPKNKSSTDFSSSGDGNSFYTQWGNQETSNSGRGRVIQDAEERPHSRYLRRAYSSDRSGTSNSQSQAKTYTMERCHSAEMLSVSKRSGGGENEERYSPTDNNANIFNFFKEKTSSSSGSFERPDNNQALSNHLCPGKTPFPFADPTPQTETVQQWFGNLQINAHLRKTTEYDSISPNRDFQGHPDLQKDTSKNAWTDTKVKKNSDASDNAHSVKQQNTMKYMTALHSKPEIIQQECVFGSDPLSEQSKTRGMEPPWGYQNRTLRSITSPLVAHRLKPIRQKTKKAVVSILDSEEVCVELVKEYASQEYVKEVLQISSDGNTITIYYPNGGRGFPLADRPPSPTDNISRYSFDNLPEKYWRKYQYASRFVQLVRSKSPKITYFTRYAKCILMENSPGADFEVWFYDGVKIHKTEDFIQVIEKTGKSYTLKSESEVNSLKEEIKMYMDHANEGHRICLALESIISEEERKTRSAPFFPIIIGRKPGSTSSPKALSPPPSVDSNYPTRERASFNRMVMHSAASPTQAPILNPSMVTNEGLGLTTTASGTDISSNSLKDCLPKSAQLLKSVFVKNVGWATQLTSGAVWVQFNDGSQLVVQAGVSSISYTSPNGQTTRYGENEKLPDYIKQKLQCLSSILLMFSNPTPNFH
binding result [4]: binds
